Experimental data published in the supplement of paper PMC10567573.
± gives the standard deviation.

Assay: protein stability index of a GFP-peptide fusion (GPS, HEK-293T) (PSI 1-6); higher = more stable
[1] = treatment: DMSO, c terminus: a fixed tail appended
[2] = treatment: MLN4924 1 uM, 8 h, c terminus: a fixed tail appended
[3] = treatment: DMSO, c terminus: native
[4] = treatment: MLN4924 1 uM, 8 h, c terminus: native
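Further: 24-mer peptide tiles fused after GFP, lentivirally expressed, FACS-sorted into six equal bins by GFP/DsRed ratio, decoded by Illumina sequencing, PSI is the read-weighted mean bin number.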

Sequence	protein stability index [1]	protein stability index [2]	protein stability index [3]	protein stability index [4]
FHEVGTEMIITKAGRRMFPSYKVK [TBX5]	2.35 ± 0.35	2.72 ± 0.33		
DASVQPGPFRTLLQFLYTGQLDEK [RHOBTB1]	2.51 ± 0.33	2.72 ± 0.3		
IQKRNQRQSGDRRQLPPPPTPANE [WAS]	5.29 ± 0.23	5.16 ± 0.21		
GLAIHCMQVHKETIDAVPNAIPGR [ZNF207]	2.94 ± 0.18	3.04 ± 0.16		
IGVAGNHWDGYSKGVNRKLGRTGL [FUT8]	3.1 ± 0.16	2.9 ± 0.18		
SKGWGRNYASIIRRDCMWSGFSAR [MYCL]	2.35 ± 0.39	2.38 ± 0.31		
IRSFGHFIARLQGSILQFNPEVGI [SMG5]	2.45 ± 0.27	2.35 ± 0.25		
AAAIIVYDITKEETFSTLKNWVKE [RAB22A]	2.67 ± 1.1	1.95 ± 0.86		
QDPLKFYKKIYFCHSCQLYLPSTE [IQUB]	1.94 ± 0.41	2.12 ± 0.66		
KCLKFLGSRHPTLVLPLVPELLST [INTS4]	2.29 ± 0.41	2.23 ± 0.18		
QAMEEDLIVGLQGMDLNLEAEALA [HDAC6]	4.8 ± 0.23	4.92 ± 0.25		
MDNYADLSDTELTTLLRRYNIPHG [EMD]	3.19 ± 0.11	3.37 ± 0.15		
DEVARRWGKRKNKPKMNYEKLSRG [ETS2]	4.11 ± 0.35	4.31 ± 0.52		
KEVGSHFDDFVTNLIEKSASLDNG [SOAT1]	4.19 ± 0.26	4.46 ± 0.37		
PKTMSQKEMEQLFSQYGRIITSRI [ELAVL3]	2.68 ± 0.18	2.76 ± 0.35		
FSLTHTHTHTPNHRGINCFFPEL [ANKRD44]			2.54 ± 0.56	2.76 ± 0.57
NSAEACQYVITHAKVNILLVENDQ [ACSBG2]	2.18 ± 0.52	2.62 ± 0.25		
GARQQQVTTYLHKDYNNLWIIKKH [POMT2]	2.49 ± 0.27	2.58 ± 0.35		
GFRGSDDMELHRMSRMQSKEYPVV [TBX5]	3.93 ± 0.31	3.98 ± 0.31		
KSLEWSPWNCILLTKDEAAAHLKL [IQUB]	2.41 ± 0.22	2.56 ± 0.11		
YEDTNGQPQALLVDGDQSKILISG [TNXB]	4.99 ± 0.13	4.73 ± 0.12		
ERLKANDNLKFSQEYESIDPGQQF [PTPRD]	4.21 ± 0.12	4.22 ± 0.16		
KLWSFFIYLLRRQIRTVIQYQTVR [CTDNEP1]	2.99 ± 0.3	2.94 ± 0.37		

Sequence	protein stability index [1]	protein stability index [2]	protein stability index [3]	protein stability index [4]
SKCLVDDGTGRMPTLKKCEDVARP [GALNT9]	4.57 ± 0.16	4.54 ± 0.21		
PRGARCSNGFPERDPPRPGPSRPA [GCH1]	4.71 ± 0.064	4.47 ± 0.38		
HWACKRNHGQVVSYLLKSGADKEI [ANKRD40]	2.59 ± 0.24	2.66 ± 0.28		
GAQELLEFTIRDLQRLGELQSELA [INTS4]	2.54 ± 0.36	2.79 ± 0.29		
GNFDWEAIFDAGTLGGELGALEAL [FOXJ1]	4.15 ± 0.26	4.17 ± 0.34		
LPPQYVDDVISRIDRMFPEMSIHL [MED27]	2.19 ± 0.087	2.29 ± 0.29		
GTATRQNNWPPLPSFCPVQPCFFQ [SCAMP3]	2.42 ± 0.16	2.45 ± 0.19		
LLYLLHILLLDGAAWLTLWVFGTS [FADS1]	3.38 ± 0.24	2.49 ± 0.25		
EYEGGHIKTAVNLPLERDAESFLL [CDC25B]	3.91 ± 0.16	3.97 ± 0.21		
VNSTLKELRRLFLVQDLVDSLKFA [RTN1]	2.44 ± 0.27	2.4 ± 0.23		
LEKGLEPEPQVPGPAHGPAQEEPW [ZNF232]	5.35 ± 0.46	5.35 ± 0.25		
FYKRRGASDLSSEEGWRLFKIDKE [SAT1]	3.32 ± 0.21	3.62 ± 0.49		
DDHLQQPLQNQKILKRTGQRYEHG [ZNF649]	4.84 ± 0.085	4.97 ± 0.23		
IMLRSNESFTMDDMSWTCGNQDYK [VDR]	2.86 ± 0.12	2.61 ± 0.27		
EKRGCPRTALEYCKLILSLEPDED [TCF25]	3.37 ± 0.17	3.42 ± 0.097		
EEMRELRRKIRELQLRYSLRILIG [BEX5]	2.76 ± 0.75	2.5 ± 0.51		
TAKRINRTSLSSGATVRSFSINSR [CDC14A]	3.26 ± 0.41	3.6 ± 0.12		
AGFCMFVLSLVKKHYRLQFYMFAW [CDS1]	2.05 ± 0.36	2.16 ± 0.38		
RPFDCPVCNKKFKMKHHLTEHMKT [ZBTB22]	2.77 ± 0.23	3.47 ± 0.53		
DAAAILLDEQNKRPCRKFLLTGQC [ZMAT5]	2.98 ± 0.45	3 ± 0.59		
ESSSPARGIAIVSVLVILISIVIF [KCNA4]	3.13 ± 0.59	2.9 ± 0.33		
SSLLAPAKHLIASMLSKNPEDRPS [PLK2]	3.2 ± 0.38	3.37 ± 0.18		
IHSHHDGVLRPTVRPGTPPDFILK [CTDNEP1]	3.66 ± 0.18	3.72 ± 0.21		

Sequence	protein stability index [1]	protein stability index [2]	protein stability index [3]	protein stability index [4]
SQAHSTLKLANHQRPVSRQVTCLR [TRAF3IP2]	3.5 ± 0.21	3.61 ± 0.44		
KLKESTVRRRYSDFEWLRSELERE [SNX3]	2.99 ± 0.44	3.13 ± 0.31		
PVGRSWHSLTPVSSDHLFLFGGFT [KLHDC2]	2.3 ± 0.53	1.87 ± 0.096		
SKEDKDLDSSEGSSQEDEDLGLSE [SPANXN3]	5.57 ± 0.33	5.62 ± 0.28		
GFEESEPLTGFLTTVPDGPTQLRA [TNXB]	4.44 ± 0.41	4.52 ± 0.3		
ECFETLRGDERILSILRHQNLLKE [CHGA]	2.9 ± 0.24	2.85 ± 0.34		
HVTNAMVLVNVLQAIYVIDFFWNE [DHCR7]	3.08 ± 0.17	2.99 ± 0.34		
FVLSCSYDGLDCQARQFRTFHHPT [SCNN1D]	2.62 ± 0.74	2.63 ± 0.58		
AHEIERLQMEMKEDDVSFLMKHKS [TRIM35]	4.83 ± 0.24	4.67 ± 0.25		
VDRLPGLQGALDLLAVLCVDGSGR [ZSWIM9]	2.01 ± 0.34	2.27 ± 0.24		
ILTTSNITEKIDVAFVDRADIKQY [TRIP13]	2.88 ± 0.2	3.02 ± 0.12		
PDSFYELKSQPLPLRSSLPISLQA [TFE3]	3.14 ± 0.15	3.26 ± 0.29		
DDDKYKITLKYPHYFPVMKKCCIP [NLN]	2.9 ± 0.23	2.49 ± 0.47		
ISQHGDPLLSNTFTETNNHWPQGP [EMID1]	3.87 ± 0.29	4.08 ± 0.16		
RNGAVRRFGQTIQSFTLRGDHRSP [NET1]	3.36 ± 0.31	3.49 ± 0.13		
KEASRHAIMRSPQMVSAIVRTMQN [CTNNB1]	3.15 ± 0.32	3.3 ± 0.35		
YCSIKCQQEHWHAEHKRTCRRKR [ZMYND11]			2.92 ± 0.61	3.51 ± 0.87
FTVNPKPRVEYIDRPRCCLRGKEC [BTBD1]	2.92 ± 0.11	3.23 ± 0.35		
LGQNDTGFSCDGTANTFRVMFKEP [BTBD1]	3.36 ± 0.2	3.29 ± 0.31		
ANPSIRDKEGYNSIHYAAAYGHRQ [ANKRD44]	3.52 ± 0.22	3.6 ± 0.3		
RTGSLFKIWLVVPSLLELAWEKLL [KLHDC10]	2.84 ± 0.27	2.78 ± 0.31		
MSVDPACPQSLPCFEASDCKESSP [NANOGP8]	5.44 ± 0.23	5.41 ± 0.33		
DAINEEIRMIQEEKESTELRAEEI [PPFIA4]	5.71 ± 0.15	5.51 ± 0.25		

Sequence	protein stability index [1]	protein stability index [2]	protein stability index [3]	protein stability index [4]
GVDPQQKMELGIDLLAYGAKAELP [MYOZ1]	3.95 ± 0.083	4.05 ± 0.16		
PQGDEEDIASRYPTLWTEQVKSRQ [SMOC2]	4.55 ± 0.17	4.52 ± 0.091		
FTELRLLLDEEEALAKKFIDKNTQ [TRIM14]	2.68 ± 0.53	3.44 ± 0.93		
KADLEVSNRHGHTCLMISCYKGHK [FEM1C]	3.03 ± 0.36	2.91 ± 0.33		
FSLVLVLDLSKPNDLWPTMENLLQ [DYNC2LI1]	2.67 ± 0.51	2.72 ± 0.41		
SKDLYLISQMDSDQFIPIWTVANM [LARP4]	2.51 ± 0.6	1.92 ± 0.36		
LSSWELEAWYEDLQEVLSSDENGG [DDIT3]	3.19 ± 0.39	3.29 ± 0.34		
FEYRGEQHKTCMLNATSKFMEFYQ [EDNRA]	2.08 ± 0.36	1.89 ± 0.32		
VTLAAHFLGLGAPNCLSMGSRCLK [ZBED1]	2.26 ± 0.37	2.19 ± 0.21		
RIIPNFYPPLEGHVRQGVFSSLNH [INTS3]	2.28 ± 0.025	2.3 ± 0.16		
LGYLLDKETLRLHPDIFLPSEICD [ZER1]	2.4 ± 0.21	2.46 ± 0.17		
DPLFGMCEKFLQEVDFFQRYFIAD [INTS4]	2.6 ± 0.36	2.21 ± 0.35		
VCQEVLERSRDVVDEVSVSLRLWD [RHOBTB1]	3.1 ± 0.48	3.36 ± 0.46		
EIIELLILSGARVNAKDNMWLTPL [ANKRD44]	3.16 ± 0.2	3.3 ± 0.72		
VRSRLEEAGIKVHDVRLNGSAAGH [TENT5C]	2.85 ± 0.43	3.21 ± 0.64		
AERRRAGRLLLTLPLLRQTAGKVL [ESRRA]	2.348 ± 0.02	2.27 ± 0.23		
GVNPDQVEKIRKLPNTLLRKDKDV [ANKRD40]	4.63 ± 0.35	4.73 ± 0.26		
LAGGLCVGIYATNSAEACQYVITH [ACSBG2]	2.84 ± 1.1	2 ± 0.36		
LLLLLLASLLPSARLASPLPREEE [ADAMTS4]	2.56 ± 0.07	3.08 ± 0.55		
DSDENSKPSVDTEGPALVEIDRSV [MIA2]	5.16 ± 0.78	5.29 ± 0.56		
